Data reported in US20220112288A1 (published 2022).

Experiments:
[1] = molecular target: T1, Recombinant human CD4 (R&D Systems, Cat. 10327-CD) (human, UniProt P01730 26-390, limits assumed); assay: BLI (Octet Red 384), non-clonal supernatant captured on AMC sensors, 100 nM human CD4
T1 construct: Bought protein; also called huCD4

[2] = molecular target: T1, Recombinant human CD4 (R&D Systems, …); assay: BLI (Octet Red 384), non-clonal supernatant captured on AMC sensors, 100 nM human CD4, 1:1 local fit;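 note: hybridoma antibodies from supernatants, one CD4 concentration giving single-point kinetics per supernatant, with curves fitted over both association and dissociation phases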

Row | Response [1] | Kd [2] [nM] | koff [2] [s⁻¹] | kon [2] [M⁻¹ s⁻¹] | Binder
1 | 0.05 | < 0.001 | < 1e-07 | 12000 | 75110_05K11A (antibody, V domains shown, Tested as non-clonal AlivaMab Mouse hybridoma supernatant (human variable regions and human kappa, mouse Fc); also called ADS75110 non-clonal supernatant 05K11A) VH: EVQLVESGGGLVQPGGSLRLSCAASGFTFSSYDMHWVRQPTGKGLEWVSTIGTAGDTYYPASVKGRFTISRENAKNSLYLQMNSLRAGDTAVYYCARGGFYYYGMDVWGQGTTVTVSS VL: EIVLTQSPGTLSLSPGERVTLSCRASQSVSNTYLAWYQQKPGQAPRLLIYGASSRATGIPDRFSGSGSGTDFTLTISRLEPEDFVVYYCQQHGSSPFTFGPGTKVDIK
2 | 0.03 | 340 | 0.00042 | 1200 | 75110_01K10A (antibody, V domains shown, Tested as non-clonal AlivaMab Mouse hybridoma supernatant (human variable regions and human kappa, mouse Fc); also called ADS75110 non-clonal supernatant 01K10A) VH: EVQLVESGGALVQPGGSLRLSCAASGFTFRNYDMHWVRQATGKGLEWVSTIGTAGDTYYPGSVKGRFTISRENAKNSLYLQMNSLRAGDTAVYYCARGGDYYYGMDVWGQGTTVTVSS VL: EIVLTQSPDTLSLSPGERATLSCRASQSLSSVYLAWYQQKPGQAPRLLIYGASSRATGIPDRFSGTGSGTDFTLTISRLEPEDFAVYYCQQYGSSPFTFGPGTKVDIK
3 | 0.0658 | 0.873 | 0.000133 | 152000 | 75110_10N21A (antibody, V domains shown, Tested as non-clonal AlivaMab Mouse hybridoma supernatant (human variable regions and human kappa, mouse Fc); also called ADS75110 non-clonal supernatant 10N21A) VH: EVQLVESGGGLVQPGGSLRLSCAASGFTFSSYDMHWVRQVTGKGLEWVSTIGTAGDTYYPGSVKGRFTISRENAKNSLYLQMNSLRAGDTAVYYCARGGYYYYGMDVWGQGTTVTVSS VL: EIVLTQSPGTLSLSPGERATLSCRASQSFISSYLAWYQQKPGQAPRLLIYGASSRATGIPDRFSGSGSGTDFTLTISRLDPEDFAVYYCQQSGNSPFTFGPGTKVDVK
4 | 0.05 | < 0.001 | < 1e-07 | 15000 | 75110_04F22A (antibody, V domains shown, Tested as non-clonal AlivaMab Mouse hybridoma supernatant (human variable regions and human kappa, mouse Fc); also called ADS75110 non-clonal supernatant 04F22A) VH: EVQLVESGGGLVQPGGSLRLSCAASGFTFSSYDIHWVRQATGKGLEWVSTIGTAGDTYYPGSVKGRFTISRENAKNSLYLQMNSLRAGDTAVYYCARGGYYYYGMDVWGQGTTVTVSS VL: EIVLTQSPGTLSLSPGERATLSCRASQSVYSSYLAWYQQKPGQAPRLLIYGASSRATGIPDRFSGSGSGTDFTLTISRLEPEDFAVYYCQQFGTSPFTFGPGTKVDIK
5 | 0.06 | < 0.001 | < 1e-07 | 37000 | 75110_01J17A (antibody, V domains shown, Tested as non-clonal AlivaMab Mouse hybridoma supernatant (human variable regions and human kappa, mouse Fc); also called ADS75110 non-clonal supernatant 01J17A) VH: EVQLVESGGGLVQPGGSLRLSCAASGFTFSSYDMHWVRQGTGKGLEWVSTIGTADDTYYPGSVKGRFTISRENAENSLYLQMNSLRAGDTAVYYCARGGDYYYGMDVWGQGTTVTVSS VL: EIVLAQSPGTLSLSPGERATLSCRASQSVYISYLAWYQQKPGQAPRLLIYGASSRATGIPDRFSGSGSGTDFTLTITRLEPEDFAVYYCQQFGSSPFTFGPGTKVDFK
6 | 0.0171 | 84 | 0.0182 | 217000 | 75110_13C07A (antibody, V domains shown, Tested as non-clonal AlivaMab Mouse hybridoma supernatant (human variable regions and human kappa, mouse Fc); also called ADS75110 non-clonal supernatant 13C07A) VH: EVQLVESGGVLVQPGGSLRLSCAASGFTFSNYDMHWVRQATGKGLEWVSTIGTAGDTYYPGSVKGRFTLSRENAKNSLYLQMHSLRAGDTAVYYCARGAYGYYGMDVWGQGTTVTVSS VL: not shown
7 | 0.06 | 2.2 | 4.8e-05 | 22000 | 75110_01N04A (antibody, V domains shown, Tested as non-clonal AlivaMab Mouse hybridoma supernatant (human variable regions and human kappa, mouse Fc); also called ADS75110 non-clonal supernatant 01N04A) VH: EVQLVESGGGLVQPGGSLRLSCAASGFTFSNYDMHWVRQATGKGLEWVSTIGTAGDTYYPGSVKGRFTISRENAKNSLYLQMNSLRAGDTAVYYCARGGDFYYGLDVWGQGTTVTVSS VL: not shown
8 | 0.06 | < 0.001 | < 1e-07 | 12000 | 75110_04P06A (antibody, V domains shown, Tested as non-clonal AlivaMab Mouse hybridoma supernatant (human variable regions and human kappa, mouse Fc); also called ADS75110 non-clonal supernatant 04P06A) VH: EVQLVESGGGLVQPGGSLRLSCAASGFTFSNYDMHWVRQATGKGLEWVSTIGTAGDTYYPGSVKGRFTISRENAKNSLYLQMNSLRAGDTAVYYCARGGDYYYGMDVWGQGTTVTVSS VL: EIVLTQSPDTLSLSPGERATLSCRASQSLSSVYLAWYQQKPGQAPRLLIYGASSRATGIPDRFSGSGSGTDFTLTINRLEPEDFVVYYCQQYGSSPFTFGPGTKVDIK
